Laboratory results: publication PMC2749287

Experiments:
VDR;RXRα [1] = target: T1, VDR;RXRα (human;human, UniProt P11473;P19793 1-427;1-462, |); assay: EMSA
VDR;RXRα [2] = target: T1, VDR;RXRα; assay: competition

T1 sequence (P11473 whole entry, chain 1 of 2): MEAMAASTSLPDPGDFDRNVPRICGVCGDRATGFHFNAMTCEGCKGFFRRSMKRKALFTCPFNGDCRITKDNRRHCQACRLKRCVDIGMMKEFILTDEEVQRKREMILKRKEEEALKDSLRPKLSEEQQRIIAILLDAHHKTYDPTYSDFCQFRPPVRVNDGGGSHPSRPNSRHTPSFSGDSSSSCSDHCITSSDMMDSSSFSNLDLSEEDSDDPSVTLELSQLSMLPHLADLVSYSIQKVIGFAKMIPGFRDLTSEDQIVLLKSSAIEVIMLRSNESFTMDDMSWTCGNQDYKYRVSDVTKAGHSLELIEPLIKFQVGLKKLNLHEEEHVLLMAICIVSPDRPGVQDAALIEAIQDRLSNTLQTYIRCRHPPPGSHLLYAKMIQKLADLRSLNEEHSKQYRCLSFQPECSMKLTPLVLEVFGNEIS
T1 sequence (P19793 whole entry, chain 2 of 2): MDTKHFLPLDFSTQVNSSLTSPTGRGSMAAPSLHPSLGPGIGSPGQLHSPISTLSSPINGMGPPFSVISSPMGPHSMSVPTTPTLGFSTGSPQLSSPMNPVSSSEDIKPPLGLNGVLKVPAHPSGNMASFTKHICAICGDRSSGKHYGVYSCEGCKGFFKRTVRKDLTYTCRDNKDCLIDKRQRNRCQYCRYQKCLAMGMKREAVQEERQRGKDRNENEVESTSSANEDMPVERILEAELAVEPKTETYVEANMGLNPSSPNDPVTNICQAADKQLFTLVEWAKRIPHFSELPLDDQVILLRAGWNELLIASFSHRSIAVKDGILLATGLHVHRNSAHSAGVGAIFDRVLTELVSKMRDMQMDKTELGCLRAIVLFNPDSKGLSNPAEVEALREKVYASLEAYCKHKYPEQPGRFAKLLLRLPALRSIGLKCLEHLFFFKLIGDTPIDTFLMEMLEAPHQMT

B1: wild-type VDRE2 probe, hCYP24A1 promoter (dsDNA)
DNA 1: CGAAGCACACCCGGTGAACTCCGGGCTT
DNA 2: AAGCCCGGAGTTCACCGGGTGTGCTTCG
binding result (VDR;RXRα [1]): binds

B2: unlabeled wild-type VDRE2 competitor (dsDNA)
DNA 1: CGAAGCACACCCGGTGAACTCCGGGCTT
DNA 2: AAGCCCGGAGTTCACCGGGTGTGCTTCG
binding result (VDR;RXRα [2]): binds
